Test results reported in article PMC3178039 (Journal of cellular physiology, 2011).

Target: the molecule itself
Assay: SDS-PAGE and immunoblot

B1: intestinal lactoferrin receptor (LfR) (receptor, human (endogenous in Caco-2), UniProt Q8WWA0 19-298, looked up)
chain: TDEANTYFKEWTCSSSPSLPRSCKEIKDECPSAFDGLYFLRTENGVIYQTFCDMTSGGGGWTLVASVHENDMRGKCTVGDRWSSQQGSKAVYPEGDGNWANYNTFGSAEAATSDDYKNPGYYDIQAKDLGIWHVPNKSPMQHWRNSSLLRYRTDTGFLQTLGHNLFGIYQKYPVKYGEGKCWTDNGPVIPVVYDFGDAQKTASYYSPYGQREFTAGFVQFRVFNNERAANALCAGMRVTGCNTEHHCIGGGGYFPEASPQQCGDFSGFDWSGYGTHVGYS
- stoichiometry N: 3
